Assay results reported in patent publication US20260117202A1.
“And” between values parts separate entries of the source, which are not always exact repeats. Identical values can stand only once.

Legend:
FHCS-1 (RSV strain A2) [1] = molecular target: FHCS-1 (RSV strain A2) (UniProt P03420); assay: ELISA; F coated 10000 ng/ml; stored 37° C. 4 W
FHCS-2 (RSV strain A2) [2] = molecular target: FHCS-2 (RSV strain A2) (UniProt P03420); assay: ELISA; F coated 10000 ng/ml; stored 37° C. 4 W
FHCS-4 (RSV strain A2) [3] = molecular target: FHCS-4 (RSV strain A2) (UniProt P03420); assay: ELISA; F coated 10000 ng/ml; stored 37° C. 4 W
FHCS-2 (RSV strain A2) [4] = molecular target: FHCS-2 (RSV strain A2) (UniProt P03420); assay: ELISA; F coated 312.5 ng/ml; stored -80° C.
FHCS-4 (RSV strain A2) [5] = molecular target: FHCS-4 (RSV strain A2) (UniProt P03420); assay: ELISA; F coated 312.5 ng/ml; stored -80° C.
FHCS-1 (RSV strain A2) [6] = molecular target: FHCS-1 (RSV strain A2) (UniProt P03420); assay: ELISA; F coated 625 ng/ml; stored -80° C.
FHCS-2 (RSV strain A2) [7] = molecular target: FHCS-2 (RSV strain A2) (UniProt P03420); assay: ELISA; F coated 625 ng/ml; stored -80° C.
FHCS-4 (RSV strain A2) [8] = molecular target: FHCS-4 (RSV strain A2) (UniProt P03420); assay: ELISA; F coated 625 ng/ml; stored -80° C.
FHCS-1 (RSV strain A2) [9] = molecular target: FHCS-1 (RSV strain A2) (UniProt P03420); assay: ELISA; F coated 625 ng/ml; stored -80° C.; remark: listed apart in the source
FHCS-2 (RSV strain A2) [10] = molecular target: FHCS-2 (RSV strain A2) (UniProt P03420); assay: ELISA; F coated 625 ng/ml; stored -80° C.; remark: listed apart in the source
FHCS-4 (RSV strain A2) [11] = molecular target: FHCS-4 (RSV strain A2) (UniProt P03420); assay: ELISA; F coated 625 ng/ml; stored -80° C.; remark: listed apart in the source
FHCS-1 (RSV strain A2) [12] = molecular target: FHCS-1 (RSV strain A2) (UniProt P03420); assay: ELISA; F coated 1250 ng/ml; stored -80° C.
FHCS-2 (RSV strain A2) [13] = molecular target: FHCS-2 (RSV strain A2) (UniProt P03420); assay: ELISA; F coated 1250 ng/ml; stored -80° C.
FHCS-4 (RSV strain A2) [14] = molecular target: FHCS-4 (RSV strain A2) (UniProt P03420); assay: ELISA; F coated 1250 ng/ml; stored -80° C.
FHCS-1 (RSV strain A2) [15] = molecular target: FHCS-1 (RSV strain A2) (UniProt P03420); assay: ELISA; F coated 312.5 ng/ml; stored 37° C. 4 W
FHCS-2 (RSV strain A2) [16] = molecular target: FHCS-2 (RSV strain A2) (UniProt P03420); assay: ELISA; F coated 312.5 ng/ml; stored 37° C. 4 W
FHCS-4 (RSV strain A2) [17] = molecular target: FHCS-4 (RSV strain A2) (UniProt P03420); assay: ELISA; F coated 312.5 ng/ml; stored 37° C. 4 W
FHCS-1 (RSV strain A2) [18] = molecular target: FHCS-1 (RSV strain A2) (UniProt P03420); assay: ELISA; F coated 625 ng/ml; stored 37° C. 4 W
FHCS-2 (RSV strain A2) [19] = molecular target: FHCS-2 (RSV strain A2) (UniProt P03420); assay: ELISA; F coated 625 ng/ml; stored 37° C. 4 W
FHCS-4 (RSV strain A2) [20] = molecular target: FHCS-4 (RSV strain A2) (UniProt P03420); assay: ELISA; F coated 625 ng/ml; stored 37° C. 4 W
FHCS-1 (RSV strain A2) [21] = molecular target: FHCS-1 (RSV strain A2) (UniProt P03420); assay: ELISA; F coated 2500 ng/ml; stored -80° C.
FHCS-2 (RSV strain A2) [22] = molecular target: FHCS-2 (RSV strain A2) (UniProt P03420); assay: ELISA; F coated 2500 ng/ml; stored -80° C.
FHCS-4 (RSV strain A2) [23] = molecular target: FHCS-4 (RSV strain A2) (UniProt P03420); assay: ELISA; F coated 2500 ng/ml; stored -80° C.
FHCS-1 (RSV strain A2) [24] = molecular target: FHCS-1 (RSV strain A2) (UniProt P03420); assay: ELISA; F coated 2500 ng/ml; stored 37° C. 4 W
FHCS-2 (RSV strain A2) [25] = molecular target: FHCS-2 (RSV strain A2) (UniProt P03420); assay: ELISA; F coated 2500 ng/ml; stored 37° C. 4 W
FHCS-4 (RSV strain A2) [26] = molecular target: FHCS-4 (RSV strain A2) (UniProt P03420); assay: ELISA; F coated 2500 ng/ml; stored 37° C. 4 W
FHCS-1 (RSV strain A2) [27] = molecular target: FHCS-1 (RSV strain A2) (UniProt P03420); assay: ELISA; F coated 2500 ng/ml; stored -80° C.; remark: listed apart in the source
FHCS-2 (RSV strain A2) [28] = molecular target: FHCS-2 (RSV strain A2) (UniProt P03420); assay: ELISA; F coated 2500 ng/ml; stored -80° C.; remark: listed apart in the source
FHCS-4 (RSV strain A2) [29] = molecular target: FHCS-4 (RSV strain A2) (UniProt P03420); assay: ELISA; F coated 2500 ng/ml; stored -80° C.; remark: listed apart in the source
FHCS-1 (RSV strain A2) [30] = molecular target: FHCS-1 (RSV strain A2) (UniProt P03420); assay: ELISA; F coated 1250 ng/ml; stored 37° C. 4 W
FHCS-2 (RSV strain A2) [31] = molecular target: FHCS-2 (RSV strain A2) (UniProt P03420); assay: ELISA; F coated 1250 ng/ml; stored 37° C. 4 W
FHCS-4 (RSV strain A2) [32] = molecular target: FHCS-4 (RSV strain A2) (UniProt P03420); assay: ELISA; F coated 1250 ng/ml; stored 37° C. 4 W
FHCS-2 (RSV strain A2) [33] = molecular target: FHCS-2 (RSV strain A2) (UniProt P03420); assay: ELISA; F coated 156.3 ng/ml; stored -80° C.
FHCS-4 (RSV strain A2) [34] = molecular target: FHCS-4 (RSV strain A2) (UniProt P03420); assay: ELISA; F coated 156.3 ng/ml; stored -80° C.
FHCS-1 (RSV strain A2) [35] = molecular target: FHCS-1 (RSV strain A2) (UniProt P03420); assay: ELISA; F coated 156.3 ng/ml; stored -80° C.
FHCS-2 (RSV strain A2) [36] = molecular target: FHCS-2 (RSV strain A2) (UniProt P03420); assay: ELISA; F coated 156.3 ng/ml; stored -80° C.; remark: listed apart in the source
FHCS-4 (RSV strain A2) [37] = molecular target: FHCS-4 (RSV strain A2) (UniProt P03420); assay: ELISA; F coated 156.3 ng/ml; stored -80° C.; remark: listed apart in the source

For AM14 monoclonal antibody, the OD value (FHCS-1 (RSV strain A2) [1]) was 1.87 OD and 2.17 OD, the OD value (FHCS-2 (RSV strain A2) [2]) was 2.11 OD and 2.23 OD and the OD value (FHCS-4 (RSV strain A2) [3]) was 1.76 OD and 2.01 OD. For the same substance, the OD value (FHCS-2 (RSV strain A2) [4]) was 0.005 OD, the OD value (FHCS-4 (RSV strain A2) [5]) was 0.004 OD and 0.007 OD and the OD value (FHCS-1 (RSV strain A2) [6]) was 0.004 OD and 0.007 OD. For the same substance, the OD value (FHCS-2 (RSV strain A2) [7]) was 0.008 OD, the OD value (FHCS-4 (RSV strain A2) [8]) was 0.005 OD and 0.006 OD and the OD value (FHCS-1 (RSV strain A2) [9]) was 0.003 OD and 0.005 OD. The OD value (FHCS-2 (RSV strain A2) [10]) was 0.005 OD and 0.006 OD, the OD value (FHCS-4 (RSV strain A2) [11]) was 0.007 OD and the OD value (FHCS-1 (RSV strain A2) [12]) was 0.006 OD. The OD value (FHCS-2 (RSV strain A2) [13]) was 0.009 OD and 0.013 OD, the OD value (FHCS-4 (RSV strain A2) [14]) was 0.013 OD and 0.011 OD and the OD value (FHCS-1 (RSV strain A2) [15]) was 0.005 OD. The OD value (FHCS-2 (RSV strain A2) [16]) was 0.005 OD, the OD value (FHCS-4 (RSV strain A2) [17]) was 0.004 OD and 0.007 OD and the OD value (FHCS-1 (RSV strain A2) [18]) was 0.006 OD and 0.008 OD. The OD value (FHCS-2 (RSV strain A2) [19]) was 0.005 OD and 0.006 OD, the OD value (FHCS-4 (RSV strain A2) [20]) was 0.006 OD and 0.007 OD and the OD value (FHCS-1 (RSV strain A2) [21]) was 0.021 OD and 0.03 OD. The OD value (FHCS-2 (RSV strain A2) [22]) was 0.02 OD and 0.024 OD, the OD value (FHCS-4 (RSV strain A2) [23]) was 0.04 OD and 0.028 OD and the OD value (FHCS-1 (RSV strain A2) [24]) was 0.109 OD and 0.096 OD. For the same substance, the OD value (FHCS-2 (RSV strain A2) [25]) was 0.45 OD and 0.185 OD, the OD value (FHCS-4 (RSV strain A2) [26]) was 0.045 OD and 0.019 OD and the OD value (FHCS-1 (RSV strain A2) [27]) was 0.034 OD and 0.039 OD. The OD value (FHCS-2 (RSV strain A2) [28]) was 0.051 OD and 0.056 OD, the OD value (FHCS-4 (RSV strain A2) [29]) was 0.008 OD and 0.007 OD and the OD value (FHCS-1 (RSV strain A2) [30]) was 0.018 OD and 0.024 OD. The OD value (FHCS-2 (RSV strain A2) [31]) was 0.025 OD and 0.019 OD and the OD value (FHCS-4 (RSV strain A2) [32]) was 0.007 OD and 0.008 OD.

Synagis® (antibody) was tested, and the OD value (FHCS-2 (RSV strain A2) [33]) was 0.028 OD and 0.032 OD, the OD value (FHCS-4 (RSV strain A2) [34]) was 0.021 OD and 0.017 OD and the OD value (FHCS-2 (RSV strain A2) [4]) was 0.089 OD and 0.108 OD. The OD value (FHCS-4 (RSV strain A2) [5]) was 0.052 OD and 0.033 OD, the OD value (FHCS-1 (RSV strain A2) [9]) was 0.17 OD and 0.181 OD and the OD value (FHCS-2 (RSV strain A2) [10]) was 0.209 OD and 0.208 OD. The OD value (FHCS-4 (RSV strain A2) [11]) was 0.094 OD and 0.066 OD, the OD value (FHCS-1 (RSV strain A2) [35]) was 0.021 OD and 0.019 OD and the OD value (FHCS-2 (RSV strain A2) [36]) was 0.043 OD and 0.038 OD. The OD value (FHCS-4 (RSV strain A2) [37]) was 0.016 OD, the OD value (FHCS-1 (RSV strain A2) [12]) was 0.357 OD and 0.35 OD and the OD value (FHCS-2 (RSV strain A2) [13]) was 0.572 OD and 0.767 OD. The OD value (FHCS-4 (RSV strain A2) [14]) was 0.252 OD and 0.209 OD, the OD value (FHCS-1 (RSV strain A2) [15]) was 0.142 OD and 0.168 OD and the OD value (FHCS-2 (RSV strain A2) [16]) was 0.154 OD and 0.143 OD. The OD value (FHCS-4 (RSV strain A2) [17]) was 0.138 OD and 0.12 OD, the OD value (FHCS-1 (RSV strain A2) [18]) was 0.324 OD and 0.612 OD and the OD value (FHCS-2 (RSV strain A2) [19]) was 0.42 OD and 0.4 OD. The OD value (FHCS-4 (RSV strain A2) [20]) was 0.378 OD and 0.389 OD, the OD value (FHCS-1 (RSV strain A2) [21]) was 1.35 OD and the OD value (FHCS-2 (RSV strain A2) [22]) was 1.65 OD and 1.91 OD. The OD value (FHCS-4 (RSV strain A2) [23]) was 0.825 OD and 0.743 OD, the OD value (FHCS-1 (RSV strain A2) [24]) was 1.91 OD and 2.11 OD and the OD value (FHCS-2 (RSV strain A2) [25]) was 1.82 OD and 1.84 OD. The OD value (FHCS-4 (RSV strain A2) [26]) was 1.8 OD and 1.78 OD, the OD value (FHCS-1 (RSV strain A2) [30]) was 1.17 OD and 1.22 OD and the OD value (FHCS-2 (RSV strain A2) [31]) was 0.995 OD and 0.91 OD. For the same substance, the OD value (FHCS-4 (RSV strain A2) [32]) was 1.05 OD and 0.985 OD.
